Assay results from publication PMC11122373, “Structure-Based De Novo Design for the Discovery of Miniprotein Inhibitors Targeting Oncogenic Mutant BRAF” (International Journal of Molecular Sciences, 2024).
Positions count from the first letter of the chain named.

B1: miniprotein 63 (designed binder)
chain: SIVGQGAQQMLVSKIKCTVANEWLDRSMLTSKFAMFVLLNEIDMLDIMLEAMGISLLEDREHQTRRVNY
notes: de novo designed miniprotein of three helices and 69 amino acids; scaffold from residues 164-232 of 14-3-3, all 69 residues allowed to mutate; Cloned into pMAL-c5x (NdeI, EcoRI) with C-terminal Myc tag; source: E. coli BL21(DE3), purified (MBPTrap HP column); not shown: MBP, N-terminal, kept; Myc, C-terminal, kept
B2: miniprotein 76 (designed binder)
chain: B1 chain with V3Q, Q8R, M10C, I15L, S27W, L56I, L57E
notes: as for B1
B3: miniprotein 94 (designed binder)
chain: PCVWTGFREFKGGQRGKERLAMCEDLMCEADWWGGNQNRDRGSIFTRVKGSGALGKISIAERGARNNAV
notes: de novo designed miniprotein of three helices and 69 amino acids; scaffold from residues 164-232 of 14-3-3, all 69 residues allowed to mutate; Cloned into pMAL-c5x with C-terminal Myc tag; source: E. coli BL21(DE3), purified (MBPTrap HP column); not shown: MBP, N-terminal, kept; Myc, C-terminal, kept

Biological target: T1, V600E mutant BRAF^15mut (BRAF kinase domain with 15 solubilizing mutations and V600E) (UniProt P15056 444-723, I543A | I544S | I551K | Q562R | L588N | K630S | Y673S | A688R | L706S | Q709R | …)
T1 construct: BRAF kinase domain, residues 444-723 of UniProt P15056, with 15 solubilizing mutations (Phe667 kept intact) and V600E; Cloned into pET-32a (NdeI, XhoI) with N-terminal MBP; also called VRAF murine sarcoma viral oncogene homologue B1 kinase domain; source: E. coli BL21(DE3), purified (MBPTrap HP column)
T1 sequence (P15056 other isoform, or with tags, fused parts or gaps with the stated changes): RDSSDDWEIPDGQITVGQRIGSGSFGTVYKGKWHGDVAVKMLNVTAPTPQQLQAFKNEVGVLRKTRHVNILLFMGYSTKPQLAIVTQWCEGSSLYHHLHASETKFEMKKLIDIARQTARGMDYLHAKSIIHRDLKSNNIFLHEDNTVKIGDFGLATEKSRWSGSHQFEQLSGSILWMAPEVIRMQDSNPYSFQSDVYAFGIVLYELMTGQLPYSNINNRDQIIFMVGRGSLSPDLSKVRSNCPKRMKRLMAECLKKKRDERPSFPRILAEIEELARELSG
Test: ELISA; 10 ug/mL V600E mutant BRAF^15mut coated in a 96-well plate; blocked with 5% skim milk in 20 mM Tris-HCl pH 7.5, 150 mM NaCl; purified Myc-tagged proteins (MEK1, MBP, miniproteins) added at 0, 200 and 2000 nM; detected with anti-c-Myc antibody and HRP-conjugated anti-mouse IgG, TMB, absorbance at 450 nm; triplicate
Settings: both partners purified

Row | Binder | binding result
1 | B1 | binds
2 | B2 | binds
3 | B3 | binds
